The values below come from US5843460.

In the experiment the target is H. pylori urease (UreA and UreB subunits) expressed in E. coli from the urease gene cluster of pILL763 or pILL753 (Helicobacter pylori).

Regarding “H. pylori HspB heat shock protein (GroEL-like)”, the urease activity (Berthelot reaction) of E. coli co-expressing the urease gene cluster and HspA plus HspB worked out at 3 fold.

Take “H. pylori HspA heat shock protein (GroES-like)”: the urease activity (Berthelot reaction) of E. coli co-expressing the urease gene cluster and HspA plus HspB was found to be 3 fold.
